# According to the supplement of paper PMC9112550, “Optimization of the antimicrobial peptide Bac7 by deep mutational scanning” (BMC Biology, 2022):
# Tested on: Escherichia coli TOP10
# Test: shrunken log2 fold change of peptide-encoding DNA abundance (4.5 h post-induction vs induction); higher = less antimicrobial activity (less host growth inhibition)
# Conditions: time post-induction: 4.5 h; library: site-saturation at positions 5, 18, 19, 20
# 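Also: peptides expressed intracellularly from a pBAD plasmid library in pooled LB shake-flask culture, induced with 0.3% L-arabinose, DNA abundance read by NGS, three biological replicates, DESeq2 with apeglm shrinkage.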
row,Sequence,shrunken log2 fold change
1,RRIRLRPPRLPRPRPRPVRMPRP,0.494
2,RRIRLRPPRLPRPRPRPVTDPRP,-0.325
3,RRIRLRPPRLPRPRPRPVVVPRP,1.45
4,RRIRLRPPRLPRPRPRPVWMPRP,0.372
5,RRIRLRPPRLPRPRPRPVYFPRP,-0.455
6,RRIRLRPPRLPRPRPRPWAIPRP,-0.0706
7,RRIRLRPPRLPRPRPRPWDYPRP,0.0642
8,RRIRLRPPRLPRPRPRPWFAPRP,-0.112
9,RRIRLRPPRLPRPRPRPWFYPRP,-0.785
10,RRIRLRPPRLPRPRPRPWGAPRP,0.261
11,RRIRLRPPRLPRPRPRPWHCPRP,-0.0686
12,RRIRLRPPRLPRPRPRPWKQPRP,-0.0134
13,RRIRLRPPRLPRPRPRPWLAPRP,-0.218
14,RRIRLRPPRLPRPRPRPWLCPRP,-0.0198
15,RRIRLRPPRLPRPRPRPWLHPRP,-0.0284
16,RRIRLRPPRLPRPRPRPWLWPRP,-0.106
17,RRIRLRPPRLPRPRPRPWMLPRP,-0.0153
18,RRIRLRPPRLPRPRPRPWNAPRP,-0.249
19,RRIRLRPPRLPRPRPRPWPNPRP,-0.0032
20,RRIRLRPPRLPRPRPRPWPVPRP,0.191
21,RRIRLRPPRLPRPRPRPWQFPRP,-0.196
22,RRIRLRPPRLPRPRPRPWQKPRP,0.0576
23,RRIRLRPPRLPRPRPRPWRQPRP,-0.121
24,RRIRLRPPRLPRPRPRPWSEPRP,0.0878
25,RRIRLRPPRLPRPRPRPWTLPRP,0.00677

row,Sequence,shrunken log2 fold change
1,RRIRLRPPRLPRPRPRPWVFPRP,0.163
2,RRIRLRPPRLPRPRPRPWWGPRP,-0.063
3,RRIRLRPPRLPRPRPRPWYAPRP,-0.171
4,RRIRLRPPRLPRPRPRPWYLPRP,-0.759
5,RRIRLRPPRLPRPRPRPYAEPRP,-0.101
6,RRIRLRPPRLPRPRPRPYARPRP,-0.44
7,RRIRLRPPRLPRPRPRPYCTPRP,1.26
8,RRIRLRPPRLPRPRPRPYELPRP,0.00404
9,RRIRLRPPRLPRPRPRPYILPRP,-0.317
10,RRIRLRPPRLPRPRPRPYLYPRP,-0.164
11,RRIRLRPPRLPRPRPRPYMEPRP,0.039
12,RRIRLRPPRLPRPRPRPYNAPRP,-0.0942
13,RRIRLRPPRLPRPRPRPYNSPRP,-0.514
14,RRIRLRPPRLPRPRPRPYPLPRP,-0.413
15,RRIRLRPPRLPRPRPRPYPVPRP,-0.025
16,RRIRLRPPRLPRPRPRPYPWPRP,-0.141
17,RRIRLRPPRLPRPRPRPYRRPRP,0.0203
18,RRIRLRPPRLPRPRPRPYVCPRP,-0.0658
19,RRIRLRPPRLPRPRPRPYVFPRP,-0.515
20,RRIRLRPPRLPRPRPRPYVYPRP,-0.706
21,RRIRLRPPRLPRPRPRPYWHPRP,-0.61
22,RRIRLRPPRLPRPRPRPYWRPRP,0.231
23,RRIRLRPPRLPRPRPRPYYRPRP,-0.043
24,RRIRMRPPRLPRPRPRPADVPRP,0.0241
25,RRIRMRPPRLPRPRPRPAEDPRP,1.93

row,Sequence,shrunken log2 fold change
1,RRIRMRPPRLPRPRPRPAEEPRP,1.55
2,RRIRMRPPRLPRPRPRPAGLPRP,0.47
3,RRIRMRPPRLPRPRPRPAGSPRP,0.2
4,RRIRMRPPRLPRPRPRPALFPRP,0.356
5,RRIRMRPPRLPRPRPRPALHPRP,0.791
6,RRIRMRPPRLPRPRPRPAMGPRP,0.867
7,RRIRMRPPRLPRPRPRPAMQPRP,0.404
8,RRIRMRPPRLPRPRPRPAPLPRP,0.541
9,RRIRMRPPRLPRPRPRPAPMPRP,0.953
10,RRIRMRPPRLPRPRPRPAPRPRP,1.72
11,RRIRMRPPRLPRPRPRPAPSPRP,1.28
12,RRIRMRPPRLPRPRPRPAQQPRP,0.612
13,RRIRMRPPRLPRPRPRPASVPRP,1.67
14,RRIRMRPPRLPRPRPRPATGPRP,0.15
15,RRIRMRPPRLPRPRPRPAWPPRP,0.896
16,RRIRMRPPRLPRPRPRPAWSPRP,0.44
17,RRIRMRPPRLPRPRPRPAYGPRP,-0.00861
18,RRIRMRPPRLPRPRPRPCAQPRP,-0.0823
19,RRIRMRPPRLPRPRPRPCCIPRP,-0.351
20,RRIRMRPPRLPRPRPRPCDGPRP,0.0158
21,RRIRMRPPRLPRPRPRPCEMPRP,0.084
22,RRIRMRPPRLPRPRPRPCFMPRP,-0.136
23,RRIRMRPPRLPRPRPRPCFQPRP,-0.0397
24,RRIRMRPPRLPRPRPRPCGFPRP,0.0233
25,RRIRMRPPRLPRPRPRPCHPPRP,0.00663

row,Sequence,shrunken log2 fold change
1,RRIRMRPPRLPRPRPRPCHRPRP,0.00646
2,RRIRMRPPRLPRPRPRPCHYPRP,-0.112
3,RRIRMRPPRLPRPRPRPCIEPRP,-0.122
4,RRIRMRPPRLPRPRPRPCIHPRP,0.00462
5,RRIRMRPPRLPRPRPRPCKHPRP,0.0196
6,RRIRMRPPRLPRPRPRPCLLPRP,-0.0289
7,RRIRMRPPRLPRPRPRPCMCPRP,-0.317
8,RRIRMRPPRLPRPRPRPCMGPRP,-0.28
9,RRIRMRPPRLPRPRPRPCMLPRP,0.303
10,RRIRMRPPRLPRPRPRPCNYPRP,0.0171
11,RRIRMRPPRLPRPRPRPCPMPRP,-0.0993
12,RRIRMRPPRLPRPRPRPCQHPRP,-0.188
13,RRIRMRPPRLPRPRPRPCRVPRP,0.00805
14,RRIRMRPPRLPRPRPRPCSGPRP,-0.146
15,RRIRMRPPRLPRPRPRPCTGPRP,-0.0444
16,RRIRMRPPRLPRPRPRPCTSPRP,0.0228
17,RRIRMRPPRLPRPRPRPCVMPRP,0.0536
18,RRIRMRPPRLPRPRPRPCVQPRP,-0.0115
19,RRIRMRPPRLPRPRPRPCWTPRP,-0.218
20,RRIRMRPPRLPRPRPRPCYHPRP,-0.265
21,RRIRMRPPRLPRPRPRPDAAPRP,3.98
22,RRIRMRPPRLPRPRPRPDDFPRP,0.938
23,RRIRMRPPRLPRPRPRPDDRPRP,-0.012
24,RRIRMRPPRLPRPRPRPDEKPRP,-0.0255
25,RRIRMRPPRLPRPRPRPDFIPRP,-0.0216

row,Sequence,shrunken log2 fold change
1,RRIRMRPPRLPRPRPRPDFYPRP,0.06
2,RRIRMRPPRLPRPRPRPDGAPRP,2.17
3,RRIRMRPPRLPRPRPRPDGIPRP,1.33
4,RRIRMRPPRLPRPRPRPDIKPRP,1.51
5,RRIRMRPPRLPRPRPRPDINPRP,3.07
6,RRIRMRPPRLPRPRPRPDIPPRP,-0.0804
7,RRIRMRPPRLPRPRPRPDMEPRP,0.00931
8,RRIRMRPPRLPRPRPRPDNIPRP,-0.184
9,RRIRMRPPRLPRPRPRPDNVPRP,-0.0207
10,RRIRMRPPRLPRPRPRPDPPPRP,1.23
11,RRIRMRPPRLPRPRPRPDRMPRP,0.422
12,RRIRMRPPRLPRPRPRPDSVPRP,-0.045
13,RRIRMRPPRLPRPRPRPDTGPRP,0.112
14,RRIRMRPPRLPRPRPRPDTYPRP,0.0447
15,RRIRMRPPRLPRPRPRPDVAPRP,0.0335
16,RRIRMRPPRLPRPRPRPDWDPRP,0.211
17,RRIRMRPPRLPRPRPRPDWYPRP,-0.135
18,RRIRMRPPRLPRPRPRPDYFPRP,-0.121
19,RRIRMRPPRLPRPRPRPDYHPRP,-0.457
20,RRIRMRPPRLPRPRPRPEAFPRP,2.91
21,RRIRMRPPRLPRPRPRPEAHPRP,3.52
22,RRIRMRPPRLPRPRPRPECCPRP,3.54
23,RRIRMRPPRLPRPRPRPEDLPRP,4.64
24,RRIRMRPPRLPRPRPRPEDQPRP,0.0267
25,RRIRMRPPRLPRPRPRPEDRPRP,-0.0526

row,Sequence,shrunken log2 fold change
1,RRIRMRPPRLPRPRPRPEDYPRP,1.06
2,RRIRMRPPRLPRPRPRPEERPRP,2.6
3,RRIRMRPPRLPRPRPRPEFGPRP,1.22
4,RRIRMRPPRLPRPRPRPEFKPRP,0.335
5,RRIRMRPPRLPRPRPRPEFQPRP,0.372
6,RRIRMRPPRLPRPRPRPEGSPRP,3.63
7,RRIRMRPPRLPRPRPRPEHNPRP,0.465
8,RRIRMRPPRLPRPRPRPEHTPRP,2.63
9,RRIRMRPPRLPRPRPRPEIKPRP,3.3
10,RRIRMRPPRLPRPRPRPEISPRP,0.0502
11,RRIRMRPPRLPRPRPRPEKKPRP,0.104
12,RRIRMRPPRLPRPRPRPELKPRP,0.95
13,RRIRMRPPRLPRPRPRPEMLPRP,3.45
14,RRIRMRPPRLPRPRPRPEMSPRP,-0.00133
15,RRIRMRPPRLPRPRPRPENMPRP,0.0343
16,RRIRMRPPRLPRPRPRPENTPRP,0.427
17,RRIRMRPPRLPRPRPRPEPQPRP,2.17
18,RRIRMRPPRLPRPRPRPEPWPRP,1.3
19,RRIRMRPPRLPRPRPRPERFPRP,0.0214
20,RRIRMRPPRLPRPRPRPERIPRP,0.0158
21,RRIRMRPPRLPRPRPRPERSPRP,3.22
22,RRIRMRPPRLPRPRPRPESFPRP,0.0441
23,RRIRMRPPRLPRPRPRPESVPRP,0.958
24,RRIRMRPPRLPRPRPRPETEPRP,3.69
25,RRIRMRPPRLPRPRPRPETLPRP,-0.0225
